Legend:
human VEGFA (human) [1] = molecular target: human VEGFA (human) (UniProt P15692); test: cell-based or functional assay
human VEGFA (human) [2] = molecular target: human VEGFA (human) (UniProt P15692); test: blocking ELISA: VEGFR2 coated, biotinylated VEGFA with antibody dilutions (FIG. 6)

Sequence of human VEGFA (human) (P15692 other isoform, or with tags, fused parts or gaps limits assumed): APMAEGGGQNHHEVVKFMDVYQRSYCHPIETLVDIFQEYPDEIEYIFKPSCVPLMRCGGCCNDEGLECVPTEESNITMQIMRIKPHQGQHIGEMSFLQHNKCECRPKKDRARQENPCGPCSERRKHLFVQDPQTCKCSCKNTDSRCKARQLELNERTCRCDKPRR
Sequence of Eylea (Aflibercept) (Fc fusion) (chain): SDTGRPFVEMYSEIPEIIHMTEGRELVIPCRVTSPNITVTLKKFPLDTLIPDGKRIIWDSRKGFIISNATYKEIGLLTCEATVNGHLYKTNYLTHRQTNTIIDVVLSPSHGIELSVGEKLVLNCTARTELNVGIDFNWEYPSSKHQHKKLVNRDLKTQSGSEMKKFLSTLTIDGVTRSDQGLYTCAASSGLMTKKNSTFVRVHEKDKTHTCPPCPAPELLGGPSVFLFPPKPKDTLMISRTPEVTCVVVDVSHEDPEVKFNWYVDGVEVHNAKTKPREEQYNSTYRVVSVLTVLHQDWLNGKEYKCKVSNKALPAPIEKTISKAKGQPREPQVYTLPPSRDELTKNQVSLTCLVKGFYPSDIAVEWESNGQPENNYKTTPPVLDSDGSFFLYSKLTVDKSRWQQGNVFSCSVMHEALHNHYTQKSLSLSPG
Sequence of Conbercept (Fc fusion) (chain): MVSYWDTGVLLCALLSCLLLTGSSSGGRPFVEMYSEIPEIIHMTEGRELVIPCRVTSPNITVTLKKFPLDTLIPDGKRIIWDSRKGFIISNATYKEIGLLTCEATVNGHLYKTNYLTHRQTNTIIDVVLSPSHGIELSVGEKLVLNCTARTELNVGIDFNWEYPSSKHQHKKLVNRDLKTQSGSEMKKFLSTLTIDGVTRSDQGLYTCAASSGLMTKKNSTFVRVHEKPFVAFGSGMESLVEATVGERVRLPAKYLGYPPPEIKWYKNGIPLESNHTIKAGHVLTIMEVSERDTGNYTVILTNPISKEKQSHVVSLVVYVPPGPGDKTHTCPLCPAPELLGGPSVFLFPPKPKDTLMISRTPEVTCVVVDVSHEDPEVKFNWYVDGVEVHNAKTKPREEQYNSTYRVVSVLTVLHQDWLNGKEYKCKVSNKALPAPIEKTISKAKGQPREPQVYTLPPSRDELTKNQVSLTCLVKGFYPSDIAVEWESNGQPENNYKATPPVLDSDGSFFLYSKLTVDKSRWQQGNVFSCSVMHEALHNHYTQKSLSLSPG

Substance | inhibitory effect on HUVEC cell proliferation, IC50 (human VEGFA (human) [1]) | IC50 (human VEGFA (human) [2])
Conbercept (Fc fusion) | 0.13 µg/mL | 0.088 µg/mL
Eylea (Aflibercept) (Fc fusion) | 0.066 µg/mL | 0.085 µg/mL
